From PMC5380474 (Molecular microbiology, 2017)
Where two headings read alike, the source gives them in different places.

Experiments:
Experiment in all cases: cross-linking
cross-linking [1] = molecular target: the molecule itself
cross-linking [2] = molecular target: the molecule itself; remark: listed apart in the source
cross-linking [3] = molecular target: the molecule itself; remark: listed apart in the source

B1: FLAG-tagged FlhA D170C/R185C (natural protein)
chain: MANLVAMLRLPSNLKSTQWQILAGPILILLILSMMVLPLPAFILDLLFTFNIALSIMVLLVAMFTQRTLDFAAFPTILLFTTLLRLALNVASTRIILMEGHTGAAAAGKVVEAFGHFLVGGNFAIGIVVFIILVIINFMVITKGAGRIAEVGARFVLDGMPGKQMAIDACLNAGLIGEDEAKKRCSEVTQEADFYGSMDGASKFVRGDAIAGILIMVINVVGGLLVGVLQHGMSIGSAAESYTLLTIGDGLVAQIPALVISTAAGVIVTRVSTDQDVGEQMVGQLFSNPRVMLLAAAVLGLLGMVPGMPNLVFLLFTAALLGLAWWLRGREEKAPEEPQPVKMPENNSVVEATWNDVQLEDSLGMEVGYRLIPMVDFQQDGELLGRIRSIRKKFAQDMGFLPPVVHIRDNMDLQPARYRILMKGVEIGSGDAYPGRWLAINPGTAAGTLPGEKTVDPAFGLDAIWIESALKEQAQIQGFTVVEASTVVATHLNHLIGQFSAELFGRQEAQQLLDRVSQEMPKLTEDLVPGVVTLTTLHKVLQNLLAEKVPIRDMRTILETLAEHAPLQSDPHELTAVVRVALGRAITQQWFPGNEEVQVIGLDTALERLLLQALQGGGGLEPGLADRLLAQTQEALSRQEMLGAPPVLLVNHALRPLLSRFLRRSLPQLVVLSNLELSDNRHIRMTATIGGK
- stoichiometry N (cross-linking [1]): 7
- stoichiometry N (cross-linking [2]): 5
- stoichiometry N (cross-linking [3]): 9
